A short description of the series: soluble fraction after stress (log2 fold change); higher = more stays soluble; pooled small domains, quantitative proteomics. The note with it: stress: 50 degC. An outline of the steps:
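Custom libraries of small protein domains were pooled and measured in a high-throughput format, with quantitative proteomics as the read-out. Each library was stressed at 50°C. The value is the log2 fold change in the amount of each protein that stays soluble after stress, used as a measure of aggregation propensity; higher values mean more of the protein stays soluble.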
With “HMVVGYRYVTNVANAVNFRQKPSASSTIITTIPYGTRIGYVEDANSEYARVKYDNMYGYVAKFYLSNYSPP”, the “soluble fraction (log2)” value is -3.27.

In the case of “HMVVLNQEQIKFIDHYLQVSKVRYVDVRSELTDHIATAVELKMQDEALDFYEAFKAFIAVNKSQLLQRN”, the “soluble fraction (log2)” value is -1.45.

Take “HMVVNERIKKLRRSLDLTQQEFADRIGVKRNTIANYEIGRNEPIDSVLELIVREFGVSKQWLLDGTGEMF”: the “soluble fraction (log2)” value is -0.55.

“HMVVPRSFKYEVLAHGGWAGNAQRYQTKEEALHAGLALSRRWTAVEDYRAVPSDDLPNQPAL”: the “soluble fraction (log2)” value is -0.259.

As for “HMVVPSNPDELKGSFSLAEVASGYGLEVAAILEKAGWPADTDPNVKMRDAANAIGRDSTDIRNAVKALLKS”, the “soluble fraction (log2)” value was -0.0505.

For the sequence “HMVVVPPPATPKPGDVTGDNKINGYDLSILLSNWKRPGATLAQGDLNKDGVVNGLDLSIMLLNWG”, the “soluble fraction (log2)” value was -0.0393.

Take “HMVVYDAELLLNINPGMSYEEVKEMLGDPGMIIAGNDAENSVYRWSTGGISFMGRFENGALIRKSIISP”: the “soluble fraction (log2)” value is -0.621.

As for “HMVWNVEQIKRAVDQLPDGYRVVFTLYLFEGYDHREIADILGISEGGSKSQFNRAKSKLKEILTAMS”, the “soluble fraction (log2)” value is -1.98.

Regarding “HMVWTAGEVVERIRERVGHPATIRELMQVLTIPPEDRHRFRRRIMQLVEAGELIRIRGNRYGLAD”, the “soluble fraction (log2)” value is -2.3.

For the sequence “HMVYNGYYAKSFNGYVVILNGDEKTVYEYTQIPIHLLPEDIRSSVMSGYYLENETDLYNFLENYS”, the “soluble fraction (log2)” value is -0.822.

As for “HMWAVDFVLLDKDDQRIGNAVAYRDDRTKGMDEEVYRTVPEEELYASTGIQKQIFNSIYQLMAWKK”, the “soluble fraction (log2)” value turned out to be 0.0151.

Regarding “HMWDRFGELDSAEEINRIAAAELREGDIDALKVLAEENGLDKDDVEDYIDRLIDELTTPELAAIGKLDV”, the “soluble fraction (log2)” value came to 0.0934.

On to “HMWKQISSEAELLPAVRSVIQANPGEAEKLRNGEMAPLEFLTGLVMKKTNGMAVPQIVKTLIKKELKI”, for which the “soluble fraction (log2)” value was found to be 0.00479.

Regarding “HMWKSEAGKKIIESLAQKYNKSNAQIILRWHIQMGYIVIPGARSENHIKENINIFDFKLTNEEINNILKLN”, the “soluble fraction (log2)” value was -0.345.

With “HMWMTAQDFRNSSLPWSATTSYNEGQSVRVVDGSNTYYYIAIVKTQPGQSPTTHPTSWREVDA”, the “soluble fraction (log2)” value was -0.99.

On to “HMWNLPDPVVRPEGNVTVYENFKNTVEVLNREADLVLKFLQNEFGTSANIDDTGRARLTGSFSTDRVSSVI”, for which the “soluble fraction (log2)” value was -0.214.

In the case of “HMWSNTAVIDRIRQLHEEGQPISSQSVQVNHKSLYMAAIKRFRGWKRAVEAAGIDYRQIRLR”, the “soluble fraction (log2)” value was -1.92.

For the sequence “HMWWTPIILRDALFGVQRFEDFQKNLDVSRATLSSRLTRLVDEGLMEKVEYQQHPVRHEYVLTEKGR”, the “soluble fraction (log2)” value was -0.108.

Turning to “HMYAGTWTTESGQWKYRQDDGTYAKGWLQDTDGRWYYFDANGRMLSNTATPDGYQVGEDGAWVNH”, the “soluble fraction (log2)” value is -0.196.

In the case of “HMYAMTAEDWIVSGNRKYINDDLQGAIADYTKAIEIDPNYAAIYLVRGKAKYELKNYQGAIEDYTKAIE”, the “soluble fraction (log2)” value was -1.13.

For the sequence “HMYAPKIETIQVPQDKIREVIGTGGKVIREIVETTGAKIDIGDTGLIKVASSDGEAIRAALDWINSIVAE”, the “soluble fraction (log2)” value is 0.117.

For HMYATQLLQLEEMGFFDRAENIRALRATNGNVNAAVERL, the “soluble fraction (log2)” value was 0.0407.

“HMYDASELNKALEEAKKLDLNNYTEESSEALKNAISKAEEALLSKDKETINSALEELNKAMDSL”: the “soluble fraction (log2)” value was found to be 0.112.

On to “HMYDEAAIRKAVMTFVTDNRDERLDLAKISAVLTSKFGNINFDELGYKRFSSFIDSFPELRRNNTFVSLR”, for which the “soluble fraction (log2)” value is -0.312.

On to “HMYDFGVILQKLRKEKGFTQEQLARLIHKESSIISRYEKGLQNPTFETVKEFAAIFNVSMDYLAG”, for which the “soluble fraction (log2)” value is -1.25.

Turning to “HMYEGNEFSSTGMFREDILAITAVHPMREDAVTELLARSNESEETLEMMIDEELLRRVAYGNHNYYMRRFR”, the “soluble fraction (log2)” value was -0.428.

For the sequence “HMYEHLKALRESLGMTQAEFGESVGVAKSTYNNYEIGARDPKSDFWIAVAQRYGVTIDYLMGFSDDPKKT”, the “soluble fraction (log2)” value is -1.65.

On to “HMYELSDTEWKIIEQVGLGASNKEIAASLHFSEGTIRNYLSVILDKLSLRDRTQLAILYVKMN”, for which the “soluble fraction (log2)” value was -0.058.

As to “HMYEPPTEDEKRVLSLLATRESIVRSDVDRLLGVSQSTANRILKQMIEKYLISQEGTGKNTKYIK”, the “soluble fraction (log2)” value is -0.0391.

With “HMYESAMSDLHARIMSSDDPHGEIYKMLTQSGPEAKYIQDMYNETSIDRGLHPDDDFEDIIDAMVAELDD”, the “soluble fraction (log2)” value is -0.479.

Take “HMYEVVPNMKGLSYEQAATALRTAGLEPELSDSIYDDKTRPGTVLEQSPRANTKVKPGRTVYLTVNAF”: the “soluble fraction (log2)” value is 0.0459.

As to “HMYFFNTFTQRLFDNPELTQEEAIRQMYPGISGVQTAEKLQENFMADVYIQAAIRQEIVVQLIR”, the “soluble fraction (log2)” value is -0.529.

Consider “HMYGSLGEYELAAVQWIYGKGKITTRELSSLIGKGLTLSSKTLRGLAAKGILEWHGNSKNDPSQFYSLP”, for which the “soluble fraction (log2)” value is -2.39.

Take “HMYHADLIGLEARSTAGDKLGEVNAVYNFGAGDLIEIKMTDGNLEMLPFTRQYVPTVSIKDGFIIVQM”: the “soluble fraction (log2)” value was -0.628.

“HMYHIYPVADNDTPKLSADRLEYSLSNALLTNKLLNIDEIKKIYNDVILDKDEDGTLELSFKS”: the “soluble fraction (log2)” value was 0.0308.

Consider “HMYIDANTALLAKRIQAKNGFLPLSDKSTAEEIYAEFGISKKAFKKALGALYKERLVRIGDEGVVWV”, for which the “soluble fraction (log2)” value was -1.79.

On to “HMYINVQNARTIASFRSSLWRMHRDFTNQGYITADGLKTFLEMGKLYEDAGGNDIYHSKLLPEITALEIKY”, for which the “soluble fraction (log2)” value is -0.76.

For the sequence “HMYKDVVVPNTVGDSEEKAYQTLSALGLVVNITYDEDASKSDRVVTSQNPTNKTIKEGESVNIVVNKQP”, the “soluble fraction (log2)” value was found to be 0.0711.

Take “HMYKIDFAEGDRVIIKGGAFSGLRATVVSLHPEKGMAKIKVYMFGDRETLVDIEVSQLEKDK”: the “soluble fraction (log2)” value was -0.348.

“HMYKTKVDIAYDMLMERITEGVYKPGEKLVITHISKELGISDIPVREAIRRLESEGYVKILPNQGAIVYD”: the “soluble fraction (log2)” value is -0.395.

On to “HMYLGRKATLLSSISGEKMGNAEVLADGNLMSIYVKSLTGEPLSYGSTVLIIKHSEDQNFYLVQN”, for which the “soluble fraction (log2)” value was -2.58.

With “HMYLQKGISNGKVYLSIVHGYRDPVTKKVRRKTIRSLGYLEDLEKQYADPIKHFEAVVAKMNEEEALE”, the “soluble fraction (log2)” value is -0.517.

As for “HMYLSNPTYRGDSLVDALTQIGVDASFASRRDLARKNGIENYTGSAKQNLELLQLLREGRLR”, the “soluble fraction (log2)” value came out at 0.374.

Take “HMYLYADIYKKLEEKIKNMEVGEKLPSERAMVQEYGVSRNVLREALVLLSERGLIEIRPGKGSYVTNQQ”: the “soluble fraction (log2)” value was -0.436.

For the sequence “HMYNKKAYVNTNSDFLNVRSEASTESSVVDKLARGTEVNIVGNIQNGFYPIVLNEKNAWVSSDWISFEKPT”, the “soluble fraction (log2)” value turned out to be 0.227.

In the case of “HMYNNDEIEKIQTMYNAIYQLNDIEKALIMLFLEDKSYKEIAEIMGISEGNARIKMMRTKDKLKNLISKN”, the “soluble fraction (log2)” value is -0.369.

As to “HMYNNGYVNSDRVNFRKGASTNSDIYKVLDKNTSVTILDYEGDWSKVKINDTVGYVYTKYITAG”, the “soluble fraction (log2)” value stood at 0.134.

For “HMYNTDAMGVRIGELRRAKGLTQEAFAKTLGISAQAVSKWETGLGFPDISLLPMIAETLGTKIETLFGAE”, the “soluble fraction (log2)” value was -0.0826.

Regarding “HMYPATGTVVTAGGHLNMRSEPDRSGAILARIPNGTALTLTGKNGDWYAATYAGRSGYVSAQYISLS”, the “soluble fraction (log2)” value is -0.0468.

In the case of “HMYPDNSGDIQQLAQNIFRQENVSVDRDGLALISSRLGSDHAATRSEIEKLALLAGPGGTLTFETISEVLG”, the “soluble fraction (log2)” value is -0.144.

As to “HMYPEDMMSLMRRALRLINHLESNRKDRHNSRQLELTESKIRRLARYYKGRGLIETEWAYKRDQLRLLV”, the “soluble fraction (log2)” value was -0.398.

For the sequence “HMYPIYDYISNMYLGKHLNAGMSLEEARGIMDEMLEKLLFDVPEEYHIDRDHFYEYLKKYYTERFSA”, the “soluble fraction (log2)” value was -1.81.

With “HMYPQLIGFKVIDEDKGEVGVVKEVSESMHQILLTVMKGKKEILIPLAEEFITKVNRHKKELFMVLPDG”, the “soluble fraction (log2)” value is 0.502.

“HMYRLDVEISDEIKRDIDEETLSEIKGIIAEDPRPSYQNDETRIYRFTFAGREISFRVKDRTATVTEIL”: the “soluble fraction (log2)” value is -0.0821.

With “HMYRPLYQQVYDFLVKQIAAGEWGPGESLPSEQALAGRLNVSQGTVRKALDALAADSLIDRRQGKGTYVAE”, the “soluble fraction (log2)” value is -0.0221.

On to “HMYRPQQEFTMRDLFQNNLNGSESASVRRDALGAELGIGYGNAKRFLERLNHYGVSREEFTAALEKLESE”, for which the “soluble fraction (log2)” value was -0.224.

Consider “HMYRSGGYTGAGKDDEEAGVVHRNEFVNTADAVRNPHVKRFLDVFNVAQKDGTIRMLNTSQILERARLDA”, for which the “soluble fraction (log2)” value is 0.123.

Turning to “HMYRYGETPMVVVPDLIGRTVSDIYEEMNADFRLEKFGNGNTVISQAPKPGERVEQGSVIRVYLSGQDQ”, the “soluble fraction (log2)” value was 0.157.

With “HMYSDERLQTFMELLPFFVEELSNKHVTRYNVWQNYREAYPNGYGRSQFFFHLGQNLEAKKK”, the “soluble fraction (log2)” value is -1.17.

As to “HMYSIKEFSFEVTTPGQRLDLFLSEELIGQTRSSIQNLILKKYVTVNGQVSKASYKVKTGEFISVKIPV”, the “soluble fraction (log2)” value is -3.16.

As for “HMYSINKTEFGERIKSAREELKMTQTQLAQLLKTSQTTVAKYEHGEQIPRADVLATISKATGKSTDWLLFG”, the “soluble fraction (log2)” value was -0.017.

For “HMYSKQRELIMEAVFKNRVHPTAEYVYKLLKKDHPELSLGTVYRNLNYWAENNMLKKINVPGGSDRFDGT”, the “soluble fraction (log2)” value is -0.00987.

“HMYSLGPKERSIVSFIANRPGSRSGQIAKSLQIPLPTIKRILNGLVENKVIARHGIGAGTNYVVEDQA”: the “soluble fraction (log2)” value is -0.594.

Take “HMYSMSAPMPGVILEIKVAPGDQVNKGDVVMVLEAMKMKNDLHAARTGTVESIDINSGEQVKYGQVLLRFV”: the “soluble fraction (log2)” value is -0.14.

For “HMYSQIGYGSSGSDVRKLQEILNGKGYNLSVDGQFGAKTKSAVRDYQSKNGLSVDGIVGVNTWGKLT”, the “soluble fraction (log2)” value is -0.0169.

Consider “HMYSYNKEEVGKRIKSIRQQKGLTQESFGELFGASKGNVATWEKGISLPNASRLREIADLVSITVEELLYG”, for which the “soluble fraction (log2)” value is -0.346.

Consider “HMYTLGEESDGTVRLLELYDIIKNKNEKIFVVDELDRSLHPNLTFNFVKKYLSIENKSQLIVSTH”, for which the “soluble fraction (log2)” value is -0.0206.

Take “HMYVKKSSFVKKSLNNYEFKITDNTNDLLIFYKGMLPDLFREEQGIVVEGLIDKNNNIVASKV”: the “soluble fraction (log2)” value is -0.0872.

Take “HMYVSGVPAITSIERVSTPGRRVYAGYTTVPKVIGGMGVSILTTSRGVMTDAEARRQKVGGELLAKV”: the “soluble fraction (log2)” value is -0.0341.

For the origin of these results see the domain aggregation screens of Martell et al. (2025).
